This note sets out measurements from patent US20260139057A1 (University of California, published 2026).

The Kd is the constant that tells how readily two partners part at equilibrium.

The target of test [1] is T1, human integrin αvβ8 on transfected cells (CHO cells stably transfected; HEK 293 cells stably expressing αvβ8) (human, UniProt P06756 31-1048; P26012 43-769).
T1 construct: whole, on cells; also called CHO αvβ8 cells; αvβ8 expressing CHO cells
The test can be described thus: flow cytometry on unfixed CHO cells expressing human αvβ8, antibody titrated, hyperbolic least-squares fit (m3 = KD); curves on D00025 [Cont.]. The protocol: (§1) FIG. 17: Characterization of cell surface binding of humanized affinity optimized anti-αvβ8 antibodies. The cell surface binding affinities of H4C8, H4G9, H4C10, H4G8 compared to HuC6D4F12 expressed as IgG4 (S228P to prevent arm exchange, R409K and L445P to reduce aggregation and to promote stability). […] Cell surface affinity was determined using the least-squares fit model based on the hyperbolic equation y=m1+m2*m0/(m3+m0), where y=MFI at different avb8 concentrations; m0=αvβ8 concentration; m1=MFI with no αvβ8; m2=MFI at saturation; and m3=KD.
(§2) FIG. 18: Binding characteristics of H4C8 of formalin fixed αvβ8 compared to HuC6D4F12 or ADWA11 2.4 (from Pat no. US2020/0079855 A1). CHO αvβ8 expressing cells were fixed in 2% buffered formalin in PBS for 15 min at RT and then stained at the indicated concentrations as described in FIG. 17. The binding affinities to unfixed or formalin fixed cells is shown. Cell surface affinity was determined using the least-squares fit model based on the hyperbolic equation y=m1+m2*m0/(m3+m0), where y=MFI at different αvβ8 concentrations; m0=αvβ8 concentration; m1=MFI with no αvβ8; m2=MFI at saturation; and m3=KD.
Background: A flow cytometer gives signals particle by particle.

In test [2] the target is T2, integrin αvβ6 ectodomain (immobilized) (human, UniProt P06756 31-992; P18564 22-709).
T2 construct: extracellular domain; Bought from R&D Systems or made in ExpiCHO cells; also called immobilized human αvβ6
Description: ELISA on immobilized integrin ectodomains plated at 1 µg/ml, blocked with 1% BSA. The protocol:
(§3) FIG. 20: H4C8 maintains ability to block αvβ8-mediated TGF-β activation similar to HuC6D4F12 while maintaining specificity for αvβ8. A) Shown are inhibition curves for the indicated antibody abilities to block the ability of immobilized human αvβ8 to activate human L-TGF-β presented on the cell surface of TMLC by GARP. The assays were performed exactly as described in (Seed et al, Sci Immunol, 2021 and Campbell, et al, Cell 2019). The estimated ED50 values are shown. The antibodies used were HuC6D4 IgG2a, HuC6D4F12 IgG2a or H3.H12, H4C8 or H4C8m (murine VL Fr4) as human IgG4. B) The specificity of H4C8 was tested against immobilized ectodomains of αvβ1, αvβ3, αvβ5, αvβ6 and αvβ8 (either purchased from R &D systems or produced in ExpiCHO cells. All ectodomains were plated at 1 μg/ml and after washing, wells were blocked with 1% BSA. The indicated antibodies (either human IgG4 isotype or H4C8 IgG4).

Test [3] deals with T3, integrin αvβ5 ectodomain (immobilized) (Homo sapiens (Human), UniProt P06756 31-992; P18084 24-719).
T3 construct: R&D Systems; copies: 1 + 1
T3 sequence (P06756 31-992 limits assumed, chain 1 of 2): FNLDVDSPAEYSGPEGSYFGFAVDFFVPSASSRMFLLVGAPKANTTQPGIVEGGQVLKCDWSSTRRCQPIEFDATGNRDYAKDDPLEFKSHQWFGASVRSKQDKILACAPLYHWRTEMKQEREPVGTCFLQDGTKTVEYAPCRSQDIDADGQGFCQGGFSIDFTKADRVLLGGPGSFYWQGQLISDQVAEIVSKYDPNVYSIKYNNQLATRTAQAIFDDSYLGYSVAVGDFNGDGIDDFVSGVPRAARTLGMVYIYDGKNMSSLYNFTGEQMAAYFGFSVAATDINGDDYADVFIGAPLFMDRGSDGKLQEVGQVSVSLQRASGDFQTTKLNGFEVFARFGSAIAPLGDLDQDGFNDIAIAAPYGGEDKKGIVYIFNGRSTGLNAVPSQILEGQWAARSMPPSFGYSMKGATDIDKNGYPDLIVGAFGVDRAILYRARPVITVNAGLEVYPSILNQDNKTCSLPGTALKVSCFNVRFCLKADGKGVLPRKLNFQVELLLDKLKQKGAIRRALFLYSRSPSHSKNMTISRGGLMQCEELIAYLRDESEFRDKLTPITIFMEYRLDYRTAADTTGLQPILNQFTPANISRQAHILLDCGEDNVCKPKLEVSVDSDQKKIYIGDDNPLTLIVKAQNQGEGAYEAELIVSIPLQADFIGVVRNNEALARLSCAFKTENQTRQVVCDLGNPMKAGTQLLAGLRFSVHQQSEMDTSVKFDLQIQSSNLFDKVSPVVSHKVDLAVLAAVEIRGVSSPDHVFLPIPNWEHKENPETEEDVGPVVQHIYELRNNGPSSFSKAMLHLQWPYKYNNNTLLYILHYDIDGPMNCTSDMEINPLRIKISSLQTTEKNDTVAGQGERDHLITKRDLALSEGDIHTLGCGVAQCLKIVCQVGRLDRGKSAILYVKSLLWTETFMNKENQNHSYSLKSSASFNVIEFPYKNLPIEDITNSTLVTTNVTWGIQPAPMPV
T3 sequence (P18084 24-719 limits assumed, chain 2 of 2): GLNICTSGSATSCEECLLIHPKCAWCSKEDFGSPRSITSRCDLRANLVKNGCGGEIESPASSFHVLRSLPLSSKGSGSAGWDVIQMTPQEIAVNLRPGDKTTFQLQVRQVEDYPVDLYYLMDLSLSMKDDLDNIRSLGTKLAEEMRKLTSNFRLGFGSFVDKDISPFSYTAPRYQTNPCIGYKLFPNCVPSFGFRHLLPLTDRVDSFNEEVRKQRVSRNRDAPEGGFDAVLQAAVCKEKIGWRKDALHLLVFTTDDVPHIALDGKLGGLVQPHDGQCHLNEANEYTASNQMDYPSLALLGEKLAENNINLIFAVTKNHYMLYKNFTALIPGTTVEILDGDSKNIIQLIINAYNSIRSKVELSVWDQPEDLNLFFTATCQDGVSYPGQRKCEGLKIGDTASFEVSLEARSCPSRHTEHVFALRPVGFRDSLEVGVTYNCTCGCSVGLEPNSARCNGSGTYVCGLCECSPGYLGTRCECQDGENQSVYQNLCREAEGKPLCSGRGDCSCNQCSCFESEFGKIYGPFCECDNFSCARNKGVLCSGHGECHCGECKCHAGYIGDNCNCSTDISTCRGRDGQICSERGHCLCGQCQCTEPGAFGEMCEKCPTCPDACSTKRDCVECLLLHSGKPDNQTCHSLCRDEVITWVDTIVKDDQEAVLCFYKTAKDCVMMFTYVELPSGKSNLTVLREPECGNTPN
Described as above. Here is the method:
as §3

The target in test [4] is T4, integrin αvβ3 ectodomain (immobilized) (Homo sapiens (Human), UniProt P06756 31-992; P05106 27-718).
T4 construct: Bought from R&D Systems or made in ExpiCHO cells; copies: 1 + 1
Described as above. The protocol: as §3

Test [5] addresses T5, integrin αvβ1 ectodomain (immobilized) (Homo sapiens (Human), UniProt P06756 31-992; P05556 21-728).
T5 construct: R&D Systems; copies: 1 + 1
Described as above. Here is the method:
as §3

In test [6] the target is T1, human integrin αvβ8 on transfected …. The test can be described thus: flow cytometry on CHO cells expressing human αvβ8 fixed in 2% buffered formalin for 15 min, antibody titrated, hyperbolic least-squares fit (m3 = KD); curves on D00025 [Cont.]. The protocol:
as §1, §2

Test [7] deals with T6, recombinant human integrin αvβ8 ectodomain (human, UniProt P06756 31-992; P26012 43-681).
T6 construct: Made in ExpiCHO cells from plasmids encoding the entire ectodomains; also called avb8; Human Integrin alpha V beta 8 (αvβ8) protein
T6 sequence (P06756 31-992 limits assumed, chain 1 of 2): as the sequence (P06756 31-992 limits assumed, chain 1 of 2) above
T6 sequence (P26012 43-681 limits assumed, chain 2 of 2): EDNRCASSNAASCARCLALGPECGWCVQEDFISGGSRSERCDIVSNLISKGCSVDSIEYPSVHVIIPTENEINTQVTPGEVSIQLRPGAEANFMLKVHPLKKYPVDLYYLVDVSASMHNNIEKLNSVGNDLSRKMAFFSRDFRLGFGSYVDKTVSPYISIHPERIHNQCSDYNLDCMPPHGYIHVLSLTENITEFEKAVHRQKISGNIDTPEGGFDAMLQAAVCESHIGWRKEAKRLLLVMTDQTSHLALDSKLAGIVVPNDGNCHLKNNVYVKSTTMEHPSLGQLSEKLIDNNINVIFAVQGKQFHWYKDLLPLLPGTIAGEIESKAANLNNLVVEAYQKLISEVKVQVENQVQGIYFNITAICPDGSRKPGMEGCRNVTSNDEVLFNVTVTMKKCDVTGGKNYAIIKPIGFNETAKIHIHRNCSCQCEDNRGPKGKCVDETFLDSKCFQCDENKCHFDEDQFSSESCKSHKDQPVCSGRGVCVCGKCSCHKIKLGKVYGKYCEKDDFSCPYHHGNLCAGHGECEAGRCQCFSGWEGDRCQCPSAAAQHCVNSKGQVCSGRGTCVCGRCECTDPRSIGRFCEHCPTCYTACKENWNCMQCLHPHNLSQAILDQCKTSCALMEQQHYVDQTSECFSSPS
Description: KinExA, solution-based affinity; antigen form not stated. An excerpt:
Samples with serial dilutions are drawn over solid-phase beads coupled with one binding partner to capture the complimentary binding molecule, which is detected by flow of fluorophore-labeled antibody solution binding to a separate epitope on the same molecule being measured. Signals are used to calculate free concentration in solution after equilibrium is reached (i.e. to determine binding affinity KD), or under pre-equilibrium conditions over time (i.e. to determine binding kinetics). Free antigen remaining in solution at equilibrium for varying initial antibody concentrations in constant initial concentration of antigen as determined by the KinExA software, based on optimized least-squares fitting to a reversible binding equation.
A Kinetic Exclusion Assay (KinExA®, Sapidyne Instruments, Inc., Boise, ID) was used to measure the binding affinity of H4C8 (Seq ID NOs. 34, 35) produced with the CH1-CH3 domain from IgG4 (Seq ID NO: 59). […] Samples with serial dilutions are drawn over solid-phase beads coupled with one binding partner to capture the complimentary binding molecule, which is detected by flow of fluorophore-labeled antibody solution binding to a separate epitope on the same molecule being measured. […]
(In general: Kinetic exclusion samples the free partner from a solution-phase mixture.)

Test [8] addresses T6, recombinant human integrin αvβ8 …. The test can be described thus: cell-based or functional assay.
For test [9] the target is unchanged. The test can be described thus: cell-based or functional assay. This is another data set of the same source.
The target in test [10] is T1, human integrin αvβ8 on transfected …. Description: flow cytometry, surface binding to CHO αvβ8 cells.

Substitutions are numbered along the chain they refer to.

T1 sequence (P06756 31-1048, chain 1 of 2): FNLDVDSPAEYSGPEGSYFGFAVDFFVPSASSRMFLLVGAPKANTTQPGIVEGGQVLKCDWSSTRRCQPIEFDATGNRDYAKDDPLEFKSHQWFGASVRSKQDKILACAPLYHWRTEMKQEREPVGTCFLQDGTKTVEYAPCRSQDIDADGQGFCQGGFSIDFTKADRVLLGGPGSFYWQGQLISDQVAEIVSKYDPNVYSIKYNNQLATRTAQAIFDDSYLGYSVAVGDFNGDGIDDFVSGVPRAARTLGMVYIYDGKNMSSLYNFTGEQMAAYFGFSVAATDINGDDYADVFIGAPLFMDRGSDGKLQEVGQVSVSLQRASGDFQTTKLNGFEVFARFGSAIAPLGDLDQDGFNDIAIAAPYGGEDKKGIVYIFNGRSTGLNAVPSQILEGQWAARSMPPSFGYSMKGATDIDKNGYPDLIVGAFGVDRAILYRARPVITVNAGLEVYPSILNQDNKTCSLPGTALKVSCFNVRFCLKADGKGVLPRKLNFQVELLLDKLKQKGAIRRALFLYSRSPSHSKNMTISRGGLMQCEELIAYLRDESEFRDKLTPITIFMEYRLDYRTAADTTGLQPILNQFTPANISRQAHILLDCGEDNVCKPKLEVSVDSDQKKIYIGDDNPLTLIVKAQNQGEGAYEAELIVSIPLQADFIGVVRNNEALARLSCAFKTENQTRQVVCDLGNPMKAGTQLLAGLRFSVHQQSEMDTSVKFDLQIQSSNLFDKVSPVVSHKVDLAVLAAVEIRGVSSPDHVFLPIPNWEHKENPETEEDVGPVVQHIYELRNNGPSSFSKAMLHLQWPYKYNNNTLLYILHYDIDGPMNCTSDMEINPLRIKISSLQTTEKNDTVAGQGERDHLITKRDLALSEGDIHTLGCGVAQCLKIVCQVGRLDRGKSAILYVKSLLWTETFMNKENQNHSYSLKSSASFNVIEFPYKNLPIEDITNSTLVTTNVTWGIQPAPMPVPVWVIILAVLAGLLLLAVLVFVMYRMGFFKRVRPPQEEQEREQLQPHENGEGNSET
T1 sequence (P26012 43-769, chain 2 of 2): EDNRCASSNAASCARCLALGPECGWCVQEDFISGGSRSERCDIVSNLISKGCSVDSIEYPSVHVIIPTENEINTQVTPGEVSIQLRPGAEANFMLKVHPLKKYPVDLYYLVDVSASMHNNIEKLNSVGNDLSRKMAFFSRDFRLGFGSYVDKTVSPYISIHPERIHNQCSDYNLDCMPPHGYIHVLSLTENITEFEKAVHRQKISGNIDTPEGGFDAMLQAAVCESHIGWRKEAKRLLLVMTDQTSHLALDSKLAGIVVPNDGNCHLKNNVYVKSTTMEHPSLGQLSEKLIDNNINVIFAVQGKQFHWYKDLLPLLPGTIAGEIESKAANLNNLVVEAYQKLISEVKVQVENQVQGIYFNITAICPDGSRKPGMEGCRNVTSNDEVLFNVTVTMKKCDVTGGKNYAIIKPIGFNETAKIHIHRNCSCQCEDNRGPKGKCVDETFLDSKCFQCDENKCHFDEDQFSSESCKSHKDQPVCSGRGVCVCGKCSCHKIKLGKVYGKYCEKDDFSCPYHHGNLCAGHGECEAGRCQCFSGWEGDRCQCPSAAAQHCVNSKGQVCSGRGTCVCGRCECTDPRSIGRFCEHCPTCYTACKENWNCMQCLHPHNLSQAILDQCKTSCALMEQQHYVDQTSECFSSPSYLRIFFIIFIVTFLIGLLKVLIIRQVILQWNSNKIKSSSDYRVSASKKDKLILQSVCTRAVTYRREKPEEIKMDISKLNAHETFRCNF
T5 sequence (P06756 31-992 limits assumed, chain 1 of 2): as the sequence (P06756 31-992 limits assumed, chain 1 of 2) above
T5 sequence (P05556 21-728 limits assumed, chain 2 of 2): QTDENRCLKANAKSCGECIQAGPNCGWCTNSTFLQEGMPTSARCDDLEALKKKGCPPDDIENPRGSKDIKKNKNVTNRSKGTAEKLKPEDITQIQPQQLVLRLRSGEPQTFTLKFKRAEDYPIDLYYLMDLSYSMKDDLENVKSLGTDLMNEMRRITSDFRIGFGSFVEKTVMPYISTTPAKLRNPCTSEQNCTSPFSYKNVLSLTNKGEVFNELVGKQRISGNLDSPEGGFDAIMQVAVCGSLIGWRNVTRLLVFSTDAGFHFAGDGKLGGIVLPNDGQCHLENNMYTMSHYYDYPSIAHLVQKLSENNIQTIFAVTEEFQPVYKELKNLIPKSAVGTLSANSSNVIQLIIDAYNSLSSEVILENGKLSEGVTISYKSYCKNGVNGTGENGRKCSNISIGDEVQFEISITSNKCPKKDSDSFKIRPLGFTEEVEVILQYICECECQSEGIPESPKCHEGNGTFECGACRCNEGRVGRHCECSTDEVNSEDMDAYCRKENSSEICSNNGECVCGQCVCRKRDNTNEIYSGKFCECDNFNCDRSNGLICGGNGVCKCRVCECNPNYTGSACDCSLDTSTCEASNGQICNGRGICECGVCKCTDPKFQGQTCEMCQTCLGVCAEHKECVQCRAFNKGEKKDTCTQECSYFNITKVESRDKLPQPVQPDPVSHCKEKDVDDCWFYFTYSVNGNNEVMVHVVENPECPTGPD

B1: H4C8 human IgG4 (antibody, V domains shown)
VH: QVQLVQSGAEVKKPGASVKVSCKVSGYTLTRQSMHWVRQAPGKGLEWMGRINTETGEPTYAQKFQGRVTMTQDTSTDTAYMELSSLRSEDTAVYFCAIFYYGRDTWGQGTTVTVSS
VL: EIVMTQSPATLSVSPGERVTLSCRSSQSLLHSRSRKNYLAWYQQKPGQAPRLLIYWASTRETGVPARFSGSGSGTEFTLTISSLQSEDFAVYYCKQSYNLLSFGQGTKVEIKR
notes: also called H4C8 IgG4
For B1, the Kd was found to be 2.6 nM in test [1], 3.6 nM in test [6] and 0.00707 nM in test [7]. Also, the binding result in test [2], in test [3], in test [4] and in test [5] was “no binding” in each case. In addition, the “ED50 of the inhibition of αvβ8-mediated TGF-β activation (immobilized αvβ8, TMLC GARP/L-TGF-β reporter cells)” value in test [8] worked out at 0.01 µg/mL. The “EC50 of inhibition of αvβ8-mediated TGF-β activation” value in test [9] amounted to 100 nM.

B2: Clone H1.1 as human IgG4 (antibody, V domains shown)
VH: B1 VH with R31K, Q32L, T55D, T59I, Q72E, F95Y, T105S, V112L
VL: B1 VL with V19A, S25A, S34T, E61A, V64I, K108V, V109L
On to B2, for which the “fold lower affinity than F12 mouse IgG2a” value in test [10] was 70 fold.
